We go through seven proteins from paper PMC4529235, “The Human Acid-Sensing Ion Channel ASIC1a: Evidence for a Homotetrameric Assembly State at the Cell Surface” (PLoS ONE, 2015).

Positions count from the first letter of the chain named. In names and notes the source's numbering stands.

Data set [1] deals with the molecule itself. The experiment in a line: cross-linking; intracellular BMOE (2 mM, internal perfusion or injection) in Xenopus oocytes; SDS-PAGE under reducing conditions, anti-ASIC1a western blot. (A western blot detects proteins with antibodies after separation by electrophoresis.)
Data set [2] deals with the molecule itself. The experiment in a line: cross-linking; BMOE (0.5 or 2 mM) at the cell surface of Xenopus oocytes and CHO cells before lysis, cell-surface biotinylated fractions, SDS-PAGE under reducing conditions, anti-ASIC1a western blot; band intensities pooled over oocytes and CHO cells.
Data set [3] deals with the molecule itself. As to the kind of experiment: cross-linking; 2 mM BMOE at the cell surface of intact Xenopus oocytes, cell-surface biotinylation, streptavidin beads, SDS-PAGE under reducing conditions, anti-His-tag western blot (ΔCCt background).

B1: wild type human ASIC1a (H8-ASIC1a) (natural protein, UniProt P78348-2 1-528, looked up)
chain: MELKAEEEEVGGVQPVSIQAFASSSTLHGLAHIFSYERLSLKRALWALCFLGSLAVLLCVCTERVQYYFHYHHVTKLDEVAASQLTFPAVTLCNLNEFRFSQVSKNDLYHAGELLALLNNRYEIPDTQMADEKQLEILQDKANFRSFKPKPFNMREFYDRAGHDIRDMLLSCHFRGEVCSAEDFKVVFTRYGKCYTFNSGRDGRPRLKTMKGGTGNGLEIMLDIQQDEYLPVWGETDETSFEAGIKVQIHSQDEPPFIDQLGFGVAPGFQTFVACQEQRLIYLPPPWGTCKAVTMDSDLDFFDSYSITACRIDCETRYLVENCNCRMVHMPGDAPYCTPEQYKECADPALDFLVEKDQEYCVCEMPCNLTRYGKELSMVKIPSKASAKYLAKKFNKSEQYIGENILVLDIFFEVLNYETIEQKKAYEIAGLLGDIGGQMGLFIGASILTVLELFDYAYEVIKHKLCRRGKCQKEAKRSSADKGVALSLDDVKRHNPCESLRGHPAGMTYAANILPHHPARGTFEDFTC
notes: ends with the terminal Cys (C528); Same construct expressed in two hosts; the printed band intensities pool oocytes and CHO cells; also called ASIC1a wt; hASIC1a; source: Xenopus laevis oocytes, cRNA injected; CHO-K1 cells, transfected; not shown: His8, N-terminal, kept
Usually stoichiometry N stands for the number of molecules, sites or subunits per partner or assembly. For the protein B1, the “stoichiometry N” value in data set [1] was found to be 4.

B2: ASIC1a G433C (with intact C-terminal cysteines) (natural protein, human, UniProt P78348-2 1-528, looked up)
chain: B1 chain with G433C
notes: human ASIC1a with G433C, C-terminal cysteines intact; The methods describe G433C only on the ΔCCt template; the results say that this G433C has intact C-terminal cysteines; source: Xenopus laevis oocytes, cRNA injected; CHO-K1 cells, transfected; not shown: His8, N-terminal, kept
For B2, in data set [2], the “stoichiometry N” value turned out to be 4.

B3: ASIC1a-ΔCCt (H8-hASIC1a-C466A/C471A/C497A/C528Stop) (natural protein, human, UniProt P78348-2 1-527, looked up)
chain: MELKAEEEEVGGVQPVSIQAFASSSTLHGLAHIFSYERLSLKRALWALCFLGSLAVLLCVCTERVQYYFHYHHVTKLDEVAASQLTFPAVTLCNLNEFRFSQVSKNDLYHAGELLALLNNRYEIPDTQMADEKQLEILQDKANFRSFKPKPFNMREFYDRAGHDIRDMLLSCHFRGEVCSAEDFKVVFTRYGKCYTFNSGRDGRPRLKTMKGGTGNGLEIMLDIQQDEYLPVWGETDETSFEAGIKVQIHSQDEPPFIDQLGFGVAPGFQTFVACQEQRLIYLPPPWGTCKAVTMDSDLDFFDSYSITACRIDCETRYLVENCNCRMVHMPGDAPYCTPEQYKECADPALDFLVEKDQEYCVCEMPCNLTRYGKELSMVKIPSKASAKYLAKKFNKSEQYIGENILVLDIFFEVLNYETIEQKKAYEIAGLLGDIGGQMGLFIGASILTVLELFDYAYEVIKHKLARRGKAQKEAKRSSADKGVALSLDDVKRHNPAESLRGHPAGMTYAANILPHHPARGTFEDFT
notes: human ASIC1a lacking the cysteines of the C-terminus; C528Stop removes the last residue; also called Ctrl; source: Xenopus laevis oocytes, cRNA injected; not shown: His8, N-terminal, kept
For B3, the “stoichiometry N” value in data set [3] was determined as 2.

B4: V74C-ΔCCt (natural protein, human, UniProt P78348 1-527, looked up)
chain: B3 chain with V74C
notes: human ASIC1a, ΔCCt background (C528Stop removes the last residue) with V74C; source: Xenopus laevis oocytes, cRNA injected; not shown: His8, N-terminal, kept
For B4, the “stoichiometry N” value in data set [3] came out at 4.

B5: Y426C-ΔCCt (natural protein, human, UniProt P78348 1-527, looked up)
chain: B3 chain with Y426C
notes: human ASIC1a, ΔCCt background (C528Stop removes the last residue) with Y426C; also called Y426C-CCt; source: Xenopus laevis oocytes, cRNA injected; not shown: His8, N-terminal, kept
Regarding B5, the “stoichiometry N” value in data set [3] came out at 4.

B6: G430C-ΔCCt (natural protein, human, UniProt P78348 1-527, looked up)
chain: B3 chain with G430C
notes: human ASIC1a, ΔCCt background (C528Stop removes the last residue) with G430C; source: Xenopus laevis oocytes, cRNA injected; not shown: His8, N-terminal, kept
In the case of B6, in data set [3], the “stoichiometry N” value is 4.

B7: G433C-ΔCCt (natural protein, human, UniProt P78348 1-527, looked up)
chain: B3 chain with G433C
notes: human ASIC1a, ΔCCt background (C528Stop removes the last residue) with G433C; source: Xenopus laevis oocytes, cRNA injected; not shown: His8, N-terminal, kept
With B7, in data set [3], the “stoichiometry N” value stood at 4.
